Measured values: IntAct's records for PubMed 29892012

B1: Abl interactor 2 (Homo sapiens), Q9NYB9 (parent)
chain: MAELQMLLEEEIPGGRRALFDSYTNLERVADYCENNYIQSADKQRALEETKAYTTQSLASVAYLINTLANNVLQMLDIQASQLRRMESSINHISQTVDIHKEKVARREIGILTTNKNTSRTHKIIAPANLERPVRYIRKPIDYTILDDIGHGVKWLLRFKVSTQNMKMGGLPRTTPPTQKPPSPPMSGKGTLGRHSPYRTLEPVRPPVVPNDYVPSPTRNMAPSQQSPVRTASVNQRNRTYSSSGSSGGSHPSSRSSSRENSGSGSVGVPIAVPTPSPPSVFPAPAGSAGTPPLPATSASAPAPLVPATVPSSTAPNAAAGGAPNLADGFTSPTPPVVSSTPPTGHPVQFYSMNRPASRHTPPTIGGSLPYRRPPSITSQTSLQNQMNGGPFYSQNPVSDTPPPPPPVEEPVFDESPPPPPPPEDYEEEEAAVVEYSDPYAEEDPPWAPRSYLEKVVAIYDYTKDKEDELSFQEGAIIYVIKKNDDGWYEGVMNGVTGLFPGNYVESIMHYSE
B2: U3 small nucleolar RNA-associated protein 25 homolog (Homo sapiens), Q68CQ4 (parent)
chain: MGKRGSRSQSQLLNTLTKKQKKHLRDFGEEHPFYDRVSRKEAKPQICQLSESSDSSDSESDSESEPQQVSGYHRLLATLKNVSEEEEEDEEEEEEEDSIVDDAEMNDEDGGSDVSVEEEMAAESTESPENVALSADPEGKEDGEEPPGTSQTSPEEFTDAKHESLFSLETNFLEEESGDNSSLKASQDPFLQHVNKELKEKAIQAVATNPKTTHELKWPILGQLFFSSKFQKLETFKPPKDIDLKSLHLQKPLESTWTKTNSQFLSGPQKSSSPFTPLQKELFLIMNSYRDLFYPERTALKNGEEIRHVYCLHVINHILKANAQVLGNNSRRRSQKFGVGDDDDFRDQGLTRPKVLIVVPFREAALRVVQLFISLLEGDSKKKIIVSNKKRFQGEYGSDPEERPPNLKRPEDYEAVFVGNIDDHFRIGVAILQRSIRLYAPFYSSDILIASPLGLRTIIGGEGEKKRDFDFLSSIELLIIDQADIYLMQNWEHVLHLMNHMNLLPLDSHGVDFSRVRMWSLNNWSKYYRQTLLFGALQDAQINSVFNKYCVNMQGQVAVRNVPMTGSISHVLVQLPHVFQRMEAENLASVIDARFNFFVNKILPQYRDAVMSHTLIYIPSYFDFVRLRNYFKKEELNFTHICEYTQKSGVSRARHFFLQGEKQFLLFTERFHFYKRYTIKGIRNLIFYELPTYPHFYSEICNMLRATNRGEEATWTCTVLYSKYDAQRLAAVVGVERAAQMLQSNKNVHLFITGEK
B3: Abl interactor 2 (Homo sapiens), Q9NYB9 (parent)
chain: B1 chain
partner: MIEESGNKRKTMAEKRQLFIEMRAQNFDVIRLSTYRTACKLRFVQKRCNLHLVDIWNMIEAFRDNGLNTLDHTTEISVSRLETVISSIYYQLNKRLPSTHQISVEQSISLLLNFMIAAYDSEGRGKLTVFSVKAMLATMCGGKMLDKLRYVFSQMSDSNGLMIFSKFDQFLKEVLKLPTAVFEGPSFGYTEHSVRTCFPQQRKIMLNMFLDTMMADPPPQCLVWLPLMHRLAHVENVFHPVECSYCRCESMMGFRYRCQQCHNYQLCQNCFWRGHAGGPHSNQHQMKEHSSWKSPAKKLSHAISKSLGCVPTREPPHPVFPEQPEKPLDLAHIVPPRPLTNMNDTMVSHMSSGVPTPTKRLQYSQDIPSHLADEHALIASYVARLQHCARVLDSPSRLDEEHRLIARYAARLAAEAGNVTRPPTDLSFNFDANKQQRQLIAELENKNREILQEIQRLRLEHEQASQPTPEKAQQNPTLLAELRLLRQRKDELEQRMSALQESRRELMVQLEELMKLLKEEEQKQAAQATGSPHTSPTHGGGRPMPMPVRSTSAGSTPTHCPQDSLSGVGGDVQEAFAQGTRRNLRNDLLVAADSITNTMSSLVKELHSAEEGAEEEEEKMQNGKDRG
B4: MOB kinase activator 3C (Homo sapiens), Q70IA8 (parent)
chain: MALCLKQVFAKDKTFRPRKRFEPGTQRFELYKKAQASLKSGLDLRSVVRLPPGENIDDWIAVHVVDFFNRINLIYGTMAERCSETSCPVMAGGPRYEYRWQDERQYRRPAKLSAPRYMALLMDWIEGLINDEEVFPTRVGVPFPKNFQQVCTKILTRLFRVFVHVYIHHFDSILSMGAEAHVNTCYKHFYYFIREFSLVDQRELEPLREMTERICH
partner: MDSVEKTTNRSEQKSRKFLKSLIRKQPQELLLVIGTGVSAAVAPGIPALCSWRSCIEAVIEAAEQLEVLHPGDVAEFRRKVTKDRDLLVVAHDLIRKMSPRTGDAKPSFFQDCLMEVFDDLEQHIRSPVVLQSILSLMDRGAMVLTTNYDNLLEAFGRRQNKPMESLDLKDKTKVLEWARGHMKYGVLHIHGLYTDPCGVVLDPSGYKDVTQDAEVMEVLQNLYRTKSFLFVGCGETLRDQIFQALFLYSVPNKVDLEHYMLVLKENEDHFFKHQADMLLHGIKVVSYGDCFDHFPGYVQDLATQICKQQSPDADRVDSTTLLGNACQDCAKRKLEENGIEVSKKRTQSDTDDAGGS
B5: Late cornified envelope protein 1B (Homo sapiens), Q5T7P3 (parent)
chain: MSCQQNQQQCQPPPKCIPKCPPKCLTPRCPPKCPPKCPPVSSCCSVSSGGCCGSSSGGSCGSSSGGCCSSGGGGCCLSHHRRRRSHCHRPQSSGCCSQPSGGSSCCGGGSGQHSGGCC
partner: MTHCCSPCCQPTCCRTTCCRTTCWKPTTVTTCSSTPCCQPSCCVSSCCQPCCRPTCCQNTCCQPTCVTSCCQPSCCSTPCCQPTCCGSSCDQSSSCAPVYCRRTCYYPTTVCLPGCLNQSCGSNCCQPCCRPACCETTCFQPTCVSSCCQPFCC
B6: U3 small nucleolar RNA-associated protein 25 homolog (Homo sapiens), Q68CQ4 (parent)
chain: B2 chain
partner: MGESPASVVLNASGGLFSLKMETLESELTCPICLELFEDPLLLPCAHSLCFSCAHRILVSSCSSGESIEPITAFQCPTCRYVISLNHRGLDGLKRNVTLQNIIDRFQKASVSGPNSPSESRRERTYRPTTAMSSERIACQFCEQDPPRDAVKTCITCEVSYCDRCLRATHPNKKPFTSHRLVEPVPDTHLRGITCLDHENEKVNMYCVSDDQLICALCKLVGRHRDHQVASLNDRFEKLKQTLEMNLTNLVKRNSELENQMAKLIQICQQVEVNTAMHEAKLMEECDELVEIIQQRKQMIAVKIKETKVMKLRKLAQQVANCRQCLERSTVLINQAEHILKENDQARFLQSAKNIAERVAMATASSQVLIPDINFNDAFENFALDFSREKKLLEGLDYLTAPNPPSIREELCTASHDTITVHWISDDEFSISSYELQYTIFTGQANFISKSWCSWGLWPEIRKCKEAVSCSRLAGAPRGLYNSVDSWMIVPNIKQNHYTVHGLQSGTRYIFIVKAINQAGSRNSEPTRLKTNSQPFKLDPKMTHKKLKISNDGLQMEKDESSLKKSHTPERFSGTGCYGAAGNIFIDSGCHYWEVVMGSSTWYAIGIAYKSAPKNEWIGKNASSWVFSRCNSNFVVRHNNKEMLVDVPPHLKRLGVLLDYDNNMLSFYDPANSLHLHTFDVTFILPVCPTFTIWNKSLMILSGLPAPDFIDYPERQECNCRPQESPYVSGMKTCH
B7: MOB kinase activator 3C (Homo sapiens), Q70IA8 (parent)
chain: B4 chain
partner: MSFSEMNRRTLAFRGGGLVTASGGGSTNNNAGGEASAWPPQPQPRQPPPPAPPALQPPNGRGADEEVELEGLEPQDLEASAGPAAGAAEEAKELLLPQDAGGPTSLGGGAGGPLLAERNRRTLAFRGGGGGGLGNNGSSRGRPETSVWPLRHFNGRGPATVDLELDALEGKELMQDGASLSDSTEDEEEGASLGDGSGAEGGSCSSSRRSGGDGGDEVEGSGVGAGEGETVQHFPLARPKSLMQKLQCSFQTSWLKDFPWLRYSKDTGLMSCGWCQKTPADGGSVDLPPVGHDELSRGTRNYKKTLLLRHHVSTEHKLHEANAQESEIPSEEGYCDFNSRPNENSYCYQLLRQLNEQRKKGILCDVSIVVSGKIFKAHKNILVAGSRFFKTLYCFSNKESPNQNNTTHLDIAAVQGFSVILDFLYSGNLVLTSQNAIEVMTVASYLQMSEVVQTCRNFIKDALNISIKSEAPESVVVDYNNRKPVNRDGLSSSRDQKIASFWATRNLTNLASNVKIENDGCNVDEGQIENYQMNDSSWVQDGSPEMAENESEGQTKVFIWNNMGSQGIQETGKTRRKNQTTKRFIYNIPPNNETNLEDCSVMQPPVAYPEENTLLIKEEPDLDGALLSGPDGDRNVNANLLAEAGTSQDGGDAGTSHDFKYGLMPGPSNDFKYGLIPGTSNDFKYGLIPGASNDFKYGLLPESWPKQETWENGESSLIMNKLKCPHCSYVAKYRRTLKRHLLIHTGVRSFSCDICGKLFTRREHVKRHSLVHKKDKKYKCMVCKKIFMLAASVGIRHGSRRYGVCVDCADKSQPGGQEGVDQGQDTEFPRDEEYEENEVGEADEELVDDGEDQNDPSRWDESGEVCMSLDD

Variants of: B1
Details: with ift20_human IFT20, Q8IY31

effect of a mutation on the interaction	Variant
with no effect	E202K

Variants of: B1
Details: with wipf1_human WIPF1, O43516

effect of a mutation on the interaction	Variant
with no effect	E202K

Variants of: B1
Details: with k1h1_human KRT31, Q15323

effect of a mutation on the interaction	Variant
with no effect	E202K

Variants of: B1
Details: with aapk2_human PRKAA2, P54646
aapk2_human PRKAA2, P54646, sequence (P54646 whole entry, looked up): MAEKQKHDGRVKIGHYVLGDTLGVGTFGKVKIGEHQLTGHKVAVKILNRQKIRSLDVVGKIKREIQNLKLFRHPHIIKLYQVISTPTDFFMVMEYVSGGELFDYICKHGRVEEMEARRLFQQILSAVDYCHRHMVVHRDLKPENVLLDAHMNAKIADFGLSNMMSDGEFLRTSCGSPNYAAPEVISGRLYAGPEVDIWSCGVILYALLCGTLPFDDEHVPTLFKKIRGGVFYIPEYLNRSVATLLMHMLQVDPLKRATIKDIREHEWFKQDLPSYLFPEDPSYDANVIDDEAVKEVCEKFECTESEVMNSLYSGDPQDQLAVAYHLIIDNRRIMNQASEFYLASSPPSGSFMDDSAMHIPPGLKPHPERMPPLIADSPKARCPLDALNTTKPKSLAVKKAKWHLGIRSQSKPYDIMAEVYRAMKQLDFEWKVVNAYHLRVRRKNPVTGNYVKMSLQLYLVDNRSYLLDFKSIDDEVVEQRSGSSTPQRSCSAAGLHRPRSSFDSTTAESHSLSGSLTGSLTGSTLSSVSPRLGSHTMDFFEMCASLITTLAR

effect of a mutation on the interaction	Variant
with no effect	E202K

Variants of: B1
Details: with skt_human KIAA1217, Q5T5P2

effect of a mutation on the interaction	Variant
with no effect	E202K

Variants of: B1
Details: with aapk1_human PRKAA1, Q13131
aapk1_human PRKAA1, Q13131, sequence (Q13131 whole entry, looked up): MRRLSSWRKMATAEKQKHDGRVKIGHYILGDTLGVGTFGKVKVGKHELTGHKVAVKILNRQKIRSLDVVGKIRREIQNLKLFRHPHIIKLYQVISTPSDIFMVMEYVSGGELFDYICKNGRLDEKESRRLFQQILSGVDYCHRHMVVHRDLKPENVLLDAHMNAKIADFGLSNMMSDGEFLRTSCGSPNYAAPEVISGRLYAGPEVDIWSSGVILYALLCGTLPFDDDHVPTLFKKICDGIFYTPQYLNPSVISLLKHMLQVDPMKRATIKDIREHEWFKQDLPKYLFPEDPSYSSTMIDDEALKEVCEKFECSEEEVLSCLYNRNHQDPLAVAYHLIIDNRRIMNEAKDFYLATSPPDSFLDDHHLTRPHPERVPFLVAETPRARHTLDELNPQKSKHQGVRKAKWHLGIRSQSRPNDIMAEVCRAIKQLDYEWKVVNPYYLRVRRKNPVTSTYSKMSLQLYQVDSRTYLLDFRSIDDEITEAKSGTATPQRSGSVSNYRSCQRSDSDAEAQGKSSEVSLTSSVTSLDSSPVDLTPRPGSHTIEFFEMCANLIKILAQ

effect of a mutation on the interaction	Variant
with no effect	E202K

Variants of: B1
Details: with eif3h_human EIF3H

effect of a mutation on the interaction	Variant
with no effect	E202K

Variants of: B1
Details: with hnrpk_human HNRNPK

effect of a mutation on the interaction	Variant
with no effect	E202K

Variants of: B1
Details: with tri32_human TRIM32, Q13049
tri32_human TRIM32, Q13049, sequence (Q13049 whole entry): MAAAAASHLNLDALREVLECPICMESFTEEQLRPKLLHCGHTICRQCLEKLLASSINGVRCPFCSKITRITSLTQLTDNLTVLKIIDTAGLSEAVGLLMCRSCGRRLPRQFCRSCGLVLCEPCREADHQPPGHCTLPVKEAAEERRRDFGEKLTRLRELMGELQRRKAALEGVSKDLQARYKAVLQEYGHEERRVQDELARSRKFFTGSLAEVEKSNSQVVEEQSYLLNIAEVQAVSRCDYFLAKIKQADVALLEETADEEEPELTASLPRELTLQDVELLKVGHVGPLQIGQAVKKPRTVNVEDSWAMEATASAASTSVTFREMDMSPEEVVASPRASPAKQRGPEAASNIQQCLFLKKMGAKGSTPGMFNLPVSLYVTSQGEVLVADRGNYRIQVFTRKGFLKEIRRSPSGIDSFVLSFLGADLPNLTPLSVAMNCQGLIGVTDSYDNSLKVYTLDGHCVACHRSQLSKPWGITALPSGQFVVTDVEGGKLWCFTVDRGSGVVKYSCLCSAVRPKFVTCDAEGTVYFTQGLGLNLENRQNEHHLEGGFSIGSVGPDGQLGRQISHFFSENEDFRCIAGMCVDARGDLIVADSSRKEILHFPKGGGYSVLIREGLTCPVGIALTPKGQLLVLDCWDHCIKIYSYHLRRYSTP

effect of a mutation on the interaction	Variant
with no effect	E202K

Variants of: B1
Details: with vasp_human VASP

effect of a mutation on the interaction	Variant
with no effect	E202K

Variants of: B1
Details: with ppif_human PPIF

effect of a mutation on the interaction	Variant
with no effect	E202K

Variants of: B1
Details: with KRT15, P19012
KRT15, P19012, sequence (P19012 whole entry): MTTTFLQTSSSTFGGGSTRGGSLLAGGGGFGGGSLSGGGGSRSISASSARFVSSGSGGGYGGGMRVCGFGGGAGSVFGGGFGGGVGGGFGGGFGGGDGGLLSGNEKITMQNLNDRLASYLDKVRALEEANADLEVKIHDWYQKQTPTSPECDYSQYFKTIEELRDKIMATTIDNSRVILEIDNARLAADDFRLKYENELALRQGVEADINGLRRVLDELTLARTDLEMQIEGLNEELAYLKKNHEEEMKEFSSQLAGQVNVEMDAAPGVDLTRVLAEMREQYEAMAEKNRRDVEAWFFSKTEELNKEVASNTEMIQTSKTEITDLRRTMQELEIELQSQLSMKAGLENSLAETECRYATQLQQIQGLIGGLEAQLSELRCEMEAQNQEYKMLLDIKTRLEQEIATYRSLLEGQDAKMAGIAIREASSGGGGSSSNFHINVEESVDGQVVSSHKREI

effect of a mutation on the interaction	Variant
with no effect	E202K

Variants of: B1
Details: with nup62_human NUP62, P37198

effect of a mutation on the interaction	Variant
with no effect	E202K

Variants of: B1
Details: with KRT19, P08727
KRT19, P08727, sequence (P08727 whole entry): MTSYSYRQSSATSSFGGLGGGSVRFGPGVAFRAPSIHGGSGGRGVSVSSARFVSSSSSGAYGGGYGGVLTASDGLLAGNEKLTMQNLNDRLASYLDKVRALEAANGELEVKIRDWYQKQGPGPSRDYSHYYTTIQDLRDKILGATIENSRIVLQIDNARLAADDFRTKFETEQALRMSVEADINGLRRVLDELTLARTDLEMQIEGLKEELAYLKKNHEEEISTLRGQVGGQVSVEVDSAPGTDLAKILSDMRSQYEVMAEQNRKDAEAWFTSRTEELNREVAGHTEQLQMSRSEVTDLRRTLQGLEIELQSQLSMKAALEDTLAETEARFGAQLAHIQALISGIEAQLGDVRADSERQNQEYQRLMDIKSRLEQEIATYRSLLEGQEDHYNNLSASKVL

effect of a mutation on the interaction	Variant
with no effect	E202K

Variants of: B1
Details: with rhg32_human ARHGAP32, A7KAX9

effect of a mutation on the interaction	Variant
with no effect	E202K

Variants of: B1
Details: with nck2_human NCK2, O43639
nck2_human NCK2, O43639, sequence (O43639 whole entry): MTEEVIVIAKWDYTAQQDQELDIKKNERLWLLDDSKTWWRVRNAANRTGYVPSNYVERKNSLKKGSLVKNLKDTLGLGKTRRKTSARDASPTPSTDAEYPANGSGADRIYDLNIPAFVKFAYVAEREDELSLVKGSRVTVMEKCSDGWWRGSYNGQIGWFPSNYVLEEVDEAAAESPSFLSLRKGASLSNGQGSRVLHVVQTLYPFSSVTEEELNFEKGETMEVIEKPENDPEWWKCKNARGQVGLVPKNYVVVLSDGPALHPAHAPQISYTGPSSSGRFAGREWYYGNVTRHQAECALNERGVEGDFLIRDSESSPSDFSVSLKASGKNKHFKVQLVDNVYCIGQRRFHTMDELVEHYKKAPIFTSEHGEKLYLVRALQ

effect of a mutation on the interaction	Variant
with no effect	E202K

Variants of: B1
Details: with hgs_human HGS

effect of a mutation on the interaction	Variant
with no effect	E202K

Variants of: B1
Details: with pcm1_human PCM1, Q15154
pcm1_human PCM1, Q15154, sequence (Q15154 whole entry): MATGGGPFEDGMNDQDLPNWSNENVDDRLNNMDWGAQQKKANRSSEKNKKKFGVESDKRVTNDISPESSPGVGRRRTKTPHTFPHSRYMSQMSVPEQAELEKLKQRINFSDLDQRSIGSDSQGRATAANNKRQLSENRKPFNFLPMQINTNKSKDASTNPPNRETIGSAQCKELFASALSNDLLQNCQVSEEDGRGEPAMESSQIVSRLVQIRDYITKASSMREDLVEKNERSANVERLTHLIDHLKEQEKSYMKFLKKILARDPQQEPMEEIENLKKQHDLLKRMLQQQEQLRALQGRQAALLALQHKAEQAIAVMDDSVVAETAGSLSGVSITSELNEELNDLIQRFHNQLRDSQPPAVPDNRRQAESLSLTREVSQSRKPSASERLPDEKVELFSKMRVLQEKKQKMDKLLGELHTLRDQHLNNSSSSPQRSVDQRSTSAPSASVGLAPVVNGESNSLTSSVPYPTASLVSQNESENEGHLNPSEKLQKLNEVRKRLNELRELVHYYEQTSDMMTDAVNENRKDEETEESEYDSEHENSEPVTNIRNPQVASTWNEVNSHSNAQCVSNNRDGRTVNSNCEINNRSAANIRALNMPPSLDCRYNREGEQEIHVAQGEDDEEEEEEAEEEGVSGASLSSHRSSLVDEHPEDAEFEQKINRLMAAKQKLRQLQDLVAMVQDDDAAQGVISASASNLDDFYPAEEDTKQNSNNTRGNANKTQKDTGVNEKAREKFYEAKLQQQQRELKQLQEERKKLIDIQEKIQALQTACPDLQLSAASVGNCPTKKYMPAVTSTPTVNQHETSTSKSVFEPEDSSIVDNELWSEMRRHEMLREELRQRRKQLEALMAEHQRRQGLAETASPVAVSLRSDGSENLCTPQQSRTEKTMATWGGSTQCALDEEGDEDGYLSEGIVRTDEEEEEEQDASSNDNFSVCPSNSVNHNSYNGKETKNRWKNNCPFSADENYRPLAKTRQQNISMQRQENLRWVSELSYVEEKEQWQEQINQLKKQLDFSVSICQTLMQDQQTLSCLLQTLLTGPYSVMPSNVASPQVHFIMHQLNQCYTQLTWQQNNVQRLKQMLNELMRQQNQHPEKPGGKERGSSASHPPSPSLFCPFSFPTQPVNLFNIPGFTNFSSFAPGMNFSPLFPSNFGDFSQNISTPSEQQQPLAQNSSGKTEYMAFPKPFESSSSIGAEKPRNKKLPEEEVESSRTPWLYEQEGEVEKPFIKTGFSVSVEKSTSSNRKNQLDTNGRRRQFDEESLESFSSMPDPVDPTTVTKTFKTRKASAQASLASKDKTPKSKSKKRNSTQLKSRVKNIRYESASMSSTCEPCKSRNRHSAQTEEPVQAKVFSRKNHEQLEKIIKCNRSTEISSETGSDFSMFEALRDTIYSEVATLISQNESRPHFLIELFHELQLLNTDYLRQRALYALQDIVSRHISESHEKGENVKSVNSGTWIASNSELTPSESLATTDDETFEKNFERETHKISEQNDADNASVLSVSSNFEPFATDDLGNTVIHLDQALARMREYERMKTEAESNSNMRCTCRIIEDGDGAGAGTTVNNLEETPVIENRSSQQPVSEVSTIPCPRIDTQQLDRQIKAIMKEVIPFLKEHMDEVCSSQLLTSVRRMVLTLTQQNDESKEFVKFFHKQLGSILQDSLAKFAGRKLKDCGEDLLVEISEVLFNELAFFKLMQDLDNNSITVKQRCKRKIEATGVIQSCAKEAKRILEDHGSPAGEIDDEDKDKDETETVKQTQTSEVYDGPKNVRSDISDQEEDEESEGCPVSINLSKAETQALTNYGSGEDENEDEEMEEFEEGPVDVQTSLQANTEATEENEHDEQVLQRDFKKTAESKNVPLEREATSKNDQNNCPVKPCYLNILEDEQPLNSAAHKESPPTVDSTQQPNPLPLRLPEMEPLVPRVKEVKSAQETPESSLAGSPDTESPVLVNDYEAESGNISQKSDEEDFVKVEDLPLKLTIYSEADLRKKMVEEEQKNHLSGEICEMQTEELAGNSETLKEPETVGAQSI

effect of a mutation on the interaction	Variant
with no effect	E202K

Variants of: B1
Details: with stam2_human STAM2, O75886

effect of a mutation on the interaction	Variant
with no effect	E202K

Variants of: B1
Details: with vinc_human VCL

effect of a mutation on the interaction	Variant
disrupting interaction strength	E202K

Variants of: B1
Details: with crx_human CRX

effect of a mutation on the interaction	Variant
with no effect	E202K

Variants of: B1
Details: with mr1l1_human MRFAP1L1, Q96HT8

effect of a mutation on the interaction	Variant
disrupting interaction strength	E202K

Variants of: B1
Details: with sdcb1_human SDCBP

effect of a mutation on the interaction	Variant
disrupting interaction strength	E202K

Variants of: B1
Details: with efs_human EFS

effect of a mutation on the interaction	Variant
with no effect	E202K

Variants of: B2
Details: with rufy1_human RUFY1, Q96T51

effect of a mutation on the interaction	Variant
with no effect	D399E

Variants of: B3
Details: with dtnb_human DTNB

effect of a mutation on the interaction	Variant
with no effect	R373C

Variants of: B3
Details: with dtnb_human DTNB
Remark: another data set of the same source

effect of a mutation on the interaction	Variant
with no effect	E202K

Variants of: B4
Details: with FAM118A

effect of a mutation on the interaction	Variant
disrupting interaction strength	MALCLKQVFAKDKTFRPRKRFEPGTQRFELYKKAQASLKSGLDLRSVVRLPPGENIDDWIAVHVVDFFNRINLIYGTMAERCSETSCPVMAGGPRYEYRWQDERQYRRPAKLSAPRYMALLMDWIEGLINDEEVFPTRVGVPFPKNFQQVCTKILTRLFRVFVHVYIHHFDSFLSMGAEAHVNTCYKHFYYFIREFSLVDQRELEPLREMTERICH [I173F]

Variants of: B5
Details: with kra94_human KRTAP9-4, Q9BYQ2

effect of a mutation on the interaction	Variant
disrupting interaction strength	MSCQQNQQQCQPPPKYIPKCPPKCLTPRCPPKCPPKCPPVSSCCSVSSGGCCGSSSGGSCGSSSGGCCSSGGGGCCLSHHRRRRSHCHRPQSSGCCSQPSGGSSCCGGGSGQHSGGCC [C16Y]

Variants of: B6
Details: with trim1_human MID2, Q9UJV3

effect of a mutation on the interaction	Variant
with no effect	D399E

Variants of: B7
Details: with zbt10_human ZBTB10, Q96DT7

effect of a mutation on the interaction	Variant
disrupting interaction strength	MALCLKQVFAKDKTFRPRKRFEPGTQRFELYKKAQASLKSGLDLRSVVRLPPGENIDDWIAVHVVDFFNRINLIYGTMAERCSETSCPVMAGGPRYEYRWQDERQYRRPAKLSAPRYMALLMDWIEGLINDEEVFPTRVGVPFPKNFQQVCTKILTRLFRVFVHVYIHHFDSFLSMGAEAHVNTCYKHFYYFIREFSLVDQRELEPLREMTERICH [I173F]
